Reference: publication PMC10198640

Target: T1, recombinant soluble form of the extracellular domain of DC-SIGN, Q9NNX6
T1 chain: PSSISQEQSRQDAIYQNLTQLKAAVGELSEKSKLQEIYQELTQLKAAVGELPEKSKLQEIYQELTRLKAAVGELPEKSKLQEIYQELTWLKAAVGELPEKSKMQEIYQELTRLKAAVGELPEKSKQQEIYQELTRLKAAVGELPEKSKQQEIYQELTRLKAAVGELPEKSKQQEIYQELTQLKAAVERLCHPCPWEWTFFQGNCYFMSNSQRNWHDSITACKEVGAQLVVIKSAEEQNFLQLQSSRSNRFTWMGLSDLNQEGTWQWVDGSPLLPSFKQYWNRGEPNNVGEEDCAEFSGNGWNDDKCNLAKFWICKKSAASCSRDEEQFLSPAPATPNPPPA
Assay: native gel or EMSA; denaturing and nondenaturing polyacrylamide gel electrophoresis of the refolded, purified protein (fig. S2, A and B)
Conditions: remark: other sources report otherwise

B1: recombinant soluble form of the extracellular domain of DC-SIGN, Q9NNX6 64-404 (domain or fragment)
chain: PSSISQEQSRQDAIYQNLTQLKAAVGELSEKSKLQEIYQELTQLKAAVGELPEKSKLQEIYQELTRLKAAVGELPEKSKLQEIYQELTWLKAAVGELPEKSKMQEIYQELTRLKAAVGELPEKSKQQEIYQELTRLKAAVGELPEKSKQQEIYQELTRLKAAVGELPEKSKQQEIYQELTQLKAAVERLCHPCPWEWTFFQGNCYFMSNSQRNWHDSITACKEVGAQLVVIKSAEEQNFLQLQSSRSNRFTWMGLSDLNQEGTWQWVDGSPLLPSFKQYWNRGEPNNVGEEDCAEFSGNGWNDDKCNLAKFWICKKSAASCSRDEEQFLSPAPATPNPPPA
stoichiometry N: 4
